Assay results: the supplement of paper PMC9170038

System: K4 kissing-loop RNA reporter
Test: apparent KD of K4 kissing-loop reporter; higher = weaker reporter binding
Conditions: Eterna round: R107; input ligand: FMN 200 uM
Description: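 RNA-MaP round R107: designed RNA switches with theophylline, tryptophan, arginine or FMN aptamers are transcribed on-chip within common flanks. They are titrated with a labelled K4 kissing-loop RNA reporter in RNA-MaP buffer (100 mM Tris pH 7.5, 80 mM KCl, 4 mM MgCl2), without ligand or with the indicated ligand. Median apparent KD per design.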
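Also: bound reporter read as fluorescence of individual clusters on recovered sequencing chips by microscopy, with normalized cluster intensities fitted with a binding model.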

Sequence	apparent KD of K4 kissing-loop reporter
AUCGAUAUCAGAGGAUAUGCUUAAUAGAUUUAUUAUUAUCUAUUAUGCAGUGAUGUUGCAUAUUUUGCAGAAGGCUGAUUUCGAA [JR_SSFMNB_Sub019]	124 nM
CUUGAUGGAAACAUCGAGUAGAUUACUGAUACCAGUAUCGAUAGAUACCCUUGGCAGCAGAAUCAGUGAUCACGAGUGAUGUUCG [Ex Theophylline A K4 8]	525 nM
AGGUGAGACUGAAGGAGCGAUCGCGCCAGUGAUGUUGGUGAGCAUGACAAAGUCAUGCACGAUCAGGUAGGUCGCAGUCUUACUC [Omei KL Arginine B SS B v2]	199 nM
AAGAGGUAGGCGGCCGCCACUAGUUGUGAACACAUACGAGCCAGUGAUGUUGGUAUUGUGGGCGGUAGGACCGGGCCUACCUGAA [Exclusion - Tryptophan B (Freestyle 19)]	319 nM
UCUCUUCUCAGUGAUGUUGAGUAAUCGGAAGGAGCGCGUGAAAACGCAGGUAGGUCGCCGAUUUGUGAAGUAUCUUCGCAAGAGA [Arginine A K4 26]	352 nM
AAGGUCACUACUACAGUGAUGUUGUAGGAGCAGGAUAUGCAGAAAUGCAGAAGGGCUCGCUCCAGGUGACCGAAUGAAACAUUCA [Omei KL FMN A SS A v3]	333 nM
GGCGAUGAGUGAUGUUCAAAGAAUAAUGAUACCAGCUGAUGUCGAAGCCCUUGGCAGCAUAGAUACACCAAGUGAUGGUAAUGCC [Default title]	193 nM
AACGGCCAGUCGGCCGCCACUCGAUGCAGUGAUGUUGCUAACUUUCUAAAAGAGUGAUGUUCAUGGAGGACCGGGACUAAUGUAA [#29 K4 Tryptophan B Exclusion]	349 nM
GGACCGCCAGUGAUGUUGGAGAUAAACUCCAAGGAUAUGACGAAAGUCAGAAGGUGGUAAUAAGACGUCAAAGACGUCAGGUCCA [FmnA 21 #SwitchBubble #K4Early]	970 nM
AAAACUCAUGGCUUAUAUCCGUGUCUCGAAGGAGCGUACAGCGGUACAGGUAGGUCGCGAGACAUGAGUGAUGUUCAUGUGUAAA [KL-XArg-A6 #analogue]	109 nM
AAUUUAUUAUCUGAUACCAGACUUUUUCUUGUUUAUAAGUCAAGUGAUGUUUGACUUUUAGUCCCUUGGCAGCAGUAUUUUUUAA [JR_Nu_SSTheophyB_Sub026]	125 nM
GGUAUCCAGUACCAUUGCGUUAAAACAGAAGGAGCGAGUAUGGACUCAGGUAGGUCGCUGUUUAUAGUCGAGUGAUGUUCGAAUC [Same State Arginine A GF 15]	237 nM
CCAGGAUGAUGAGGAUGAUGAAUUACUGAAGGAGCGCAUAUGGUUGCAGGUAGGUCGCGGUGAACAAGUAUAGUGAUGUUAUGCC [SSArgA.W]	575 nM
UUUGGUUUCUCGGCCGCCACUCGUUGGUUAUGGGCUUCAGGGAUAUAGUGAUGUUAUGUAUAGAAGAGGACCGGGAGAAGGAAGG [ExTryptoB.Dq]	195 nM
UCGCCAAAGUCGGCCGCCACUCCGGGCCCUAUAAAUGGGCGCAGUGAUGUUGCGGCUAGGCCUCUGAGGACCGGGACUUUGUAGA [Esenusza]	116 nM
UGGACAUGACUCGAUAAGAGUCAAUGGGAUACCAGUGACGAAAGUCACCCUUGGCAGCUCAACUGCCAGUGAUGUUGGUAGUCCU [Astros-Elimod]	205 nM
GUAUCGCUAGGAGGAUAUUUCGUUUUUCAUAGCAAUGGCUAUGCGGAGUGAUGUUCCGAUUUACCGGAAGAAGGCCUAGUGAUAC [FMN B 26]	109 nM
AGUAGUUGGACGGCCGCCACUAGAACAGCUUUGCCAAAGGCAGAGCACUAGAGUGAUGUUCUAGCUAGGACCGGGUCCAACUACA [Omei KL Tryp B SS A v1]	902 nM
UGACUGGACUGAAGGAGCGAGGACGGUCAUAGACCGAAAUCAGUGAUGUUGAAAGAUAAACCUCAGGUAGGUCGCAGUCUAGUCU [ArgBS 1 #SwitchBubble #StaticStem]	1070 nM
AACUGUCAAGGCCGACAUUACUGAGGUGAUACCAGCAUCGAAAGAUGCCCUUGGCAGCACCAACUUGCAGUGAUGUUGCAAGUAA [BrourdMod 14 - Jieux - Exclusion - Theophylline A]	191 nM
CCUAGUCGGAUACUCAAUCCAAUGCGAGAUACCAGCGGUCUUACGCGCCCUUGGCAGCUCAUAAUGAUGAACCAGUGAUGUUGGG [theeternabot_sameState_KL_Theo_A_40]	423 nM
GGUACAGCGGAAGGAUAUCUGUCAUGGACGAUCGUAGCUUGAGCUCCCUGAGUGAUGUUUAGGAUGAGAGAAGGUCCACUCGUAU [theeternabot_exclusion_KL_FMN_B_2]	673 nM

Sequence	apparent KD of K4 kissing-loop reporter
UUUAACGAGUGAUGUUCGAAGAGUAAUGGUGAGGAUAUCGAUUUUUCGAGAAGGCGCCUCGAAGUGAUACGAAAGUAUCGCUUCG [FMN A 6]	239 nM
AGAUGUCUCUGGGAUACCAGUCGGAGUCUCAGGGCUCGGAGUGAUGUUCUGGGAUGUUUCGGCCCUUGGCAGCCCUGGGACUCCC [#2 Exclusion - Theophylline B Attempt #27 (HarryS)]	724 nM
AAUCAAUACAGAAGGAGCGUGACAAUUACUAUUGAAUUAGGAGCUAGUGAUGUUAGCAUAACACAGGUAGGUCGCUGUACAUUUA [JR_SSArginiB_Sub012]	145 nM
GCCGUACGCAUGGAUACCAGCAAGUAUAUAUGCUAGUGAUGUUAGCGCUAUGCGAUGCGGUGCCCUUGGCAGCCAUGCGUACGGC	129 nM
UCUGGAGCGUAUGAUACCAGCAGAGAGAGACAGGAAGUAUAGUGAUGUUAUAUGAGAGAAUGCCCUUGGCAGCGUGUGCAGUGGC [#26 K4 Theophylline B Same State]	55.9 nM
GACGGGCAGUGAUGUUGCCGGUCUCUUGGACGAGGACCGGUACGGCCGCCACUCGAUCUGAUGCGAGAAUUGUAUCUUUUAAUAA [Tegesosoat]	250 nM
GGAUAGGACAGAGGAUAUGGGCUAGGCAAGAAUAACUUGUCUAGCAAAUCCAUGAGGAGUGAUGUUCCAGAAGGUUGUCCUAUCG [FmnBX 1 U75]	284 nM
GUGACCUACUCAGGAUAUCCGCAGUGAUGUUGCGGUUGGCCUGAGCGACAUGAAAAUCUUACUACAGGAGAAGGGAGAGGGUUAC [Leanteti]	113 nM
AAUUUAUUAACUGAUACCAGACUUAAUGAAUUGUAAAUUACUAGUGAUGUUAGUGAAUCUGUCCCUUGGCAGCAGUAUUUAUUAA [JR_ExcTheophyB_Sub010]	144 nM
GAGGUACAGGCGGCCGCCACUAGUGAUGUUAGUGAUAAAAGAUAUAGUAAAUAUCGGCAUGUAGAUAGGACCGGGCCUGAUGGAG [ptvcmullin]	234 nM
AACGCUGGUGAAUAACACUAGCGAAAAUUCCGAGGACCGGUACGGCCGCCACUCGGCUAACUGCGAGUGAUGUUCGAUAAUAAAA [Mat - Mod of OpenEnded 3 - D9]	80.3 nM
GAGAAUAACGGAAGGAGCGAGUAAUGGAGUGAUGUUCCAAUCAAUAAAACACAAUAAAAUACUCAGGUAGGUCGCCGUAGUAGUU [Exclusion Argiie B GF 12]	244 nM
GGGAAGAAGGCGGCCGCCACUGCAGAAGAGACAGAGAGGGUAGAAGAGGAGUGAUGUUCCAAGAACAGGACCGGGCCAAGAAGGG [whbob_SS_Tryp_B_t30]	226 nM
AUUUUUUUGUCAGGAUAUUAGUAUGCGUUUGGUUUGUUAGUGAUGUUGAUAUUUUGUUUAUGUAUUUAAGAAGGGAUUUAGCGGU [yyitemullin]	497 nM
AGAUACUUUAUCGCUAGAGGCAUUGCAGAUACCAGCCUAUCUAGAGGCCCUUGGCAGCUGGAGUGAUGUUUCGGCUUAGCUAAAG [theeternabot_exclusion_KL_Theo_A_32]	402 nM
CAUAGGAAACUAUGUUUCUCUCUGACUGAAGGAGCGCGUGAAAACGCAGGUAGGUCGCAGAAUUUAACAGAGAGUGAUGUUCUCA [Ex Arginine A K4 12]	457 nM
UGCACGUAGUGAUGUUACAGCAAGUUUAUGAAGGAUAUGAGGUUAGUCAGAAGGUCAGCCGUCUCGUUGUAAGCACCUUAUCAUU [theeternabot_exclusion_KL_FMN_A_14]	305 nM
GGAUCCGCCAGUGAUGUUGGAGAAAACUCCAAGGAUAUGACGAAAGUCAGAAGGUGGUAGACUGGACAAAGUCCGGUCGGAUCCA [FmnA 26 #SwitchBubble #K4Early]	761 nM
UUAGAGGCCCAGUGAUGUUGGGUGGUUGGGCGAGGACCGGUACGGCCGCCACUCGCCGCGGAACUAUCGGAAUCUCGCUCGGCUA [Aninxearqu]	277 nM
GGAUCCACCAGUGAUGUUGGAGAAAACUUCAAGGAUAUGACGAAAGUCAGAAGGUGGUAGACUGGUCAAAGUCCGGUCGGAUCCA [FmnA10 U29+U66]	658 nM
UUUUACGAGUGAUGUUCGUAUUGUAAUAGUUAGGAUAUCGUUUUUUCGAGAAGGAACUUCGAAGUGAUACGAAAGUAUCGCUUCG [FMN A 10]	138 nM

Same assay, conditions: Eterna round: R107; input ligand: arginine 13.2 mM

Sequence	apparent KD of K4 kissing-loop reporter
AUCGAUAUCAGAGGAUAUGCUUAAUAGAUUUAUUAUUAUCUAUUAUGCAGUGAUGUUGCAUAUUUUGCAGAAGGCUGAUUUCGAA [JR_SSFMNB_Sub019]	433 nM
CUUGAUGGAAACAUCGAGUAGAUUACUGAUACCAGUAUCGAUAGAUACCCUUGGCAGCAGAAUCAGUGAUCACGAGUGAUGUUCG [Ex Theophylline A K4 8]	441 nM
AGGUGAGACUGAAGGAGCGAUCGCGCCAGUGAUGUUGGUGAGCAUGACAAAGUCAUGCACGAUCAGGUAGGUCGCAGUCUUACUC [Omei KL Arginine B SS B v2]	156 nM
AAGAGGUAGGCGGCCGCCACUAGUUGUGAACACAUACGAGCCAGUGAUGUUGGUAUUGUGGGCGGUAGGACCGGGCCUACCUGAA [Exclusion - Tryptophan B (Freestyle 19)]	336 nM
UCUCUUCUCAGUGAUGUUGAGUAAUCGGAAGGAGCGCGUGAAAACGCAGGUAGGUCGCCGAUUUGUGAAGUAUCUUCGCAAGAGA [Arginine A K4 26]	341 nM
AAGGUCACUACUACAGUGAUGUUGUAGGAGCAGGAUAUGCAGAAAUGCAGAAGGGCUCGCUCCAGGUGACCGAAUGAAACAUUCA [Omei KL FMN A SS A v3]	504 nM
GGCGAUGAGUGAUGUUCAAAGAAUAAUGAUACCAGCUGAUGUCGAAGCCCUUGGCAGCAUAGAUACACCAAGUGAUGGUAAUGCC [Default title]	209 nM
AACGGCCAGUCGGCCGCCACUCGAUGCAGUGAUGUUGCUAACUUUCUAAAAGAGUGAUGUUCAUGGAGGACCGGGACUAAUGUAA [#29 K4 Tryptophan B Exclusion]	298 nM
GGACCGCCAGUGAUGUUGGAGAUAAACUCCAAGGAUAUGACGAAAGUCAGAAGGUGGUAAUAAGACGUCAAAGACGUCAGGUCCA [FmnA 21 #SwitchBubble #K4Early]	206 nM
AAAACUCAUGGCUUAUAUCCGUGUCUCGAAGGAGCGUACAGCGGUACAGGUAGGUCGCGAGACAUGAGUGAUGUUCAUGUGUAAA [KL-XArg-A6 #analogue]	109 nM
